# Test system: S. uberis, S. aureus, S. agalactiae and S. dysgalactiae
# Test: 2 h time killing assay in PBS and UHT-milk, relative in vitro scoring
# Format: cell-based
# Details: 0.25 μM
# Description: Concerning the time killing assay, an overnight bacterial culture was diluted 1:10 for S. uberis, S. agalactiae-& dysgalactiae or 1:100 for S. aureus in PBS or UHT-pasteurized whole cow's milk. A volume of 10 μL thereof was combined with an equal amount of chimeric endolysin in PBS (or only PBS as negative control) in triplicate and incubated in a covered 96-well microtiter plate at 37° C. for 2 h. […] Finally, these fractions were serially diluted 1:10 in PBS. 5 μL of each fraction was spotted on TSA or BHI-agar and incubated overnight at 37° C. The following day, colony forming units (CFU) were counted and converted to CFU/mL to calculate logarithmic reductions in comparison with the negative control. The relative scores were calculated by dividing the observed logarithmic reduction for each endolysin by the maximal reduction observed for that specific condition and strain. Next, this value was divided by the number of conditions and strains tested (i.e., 8=4 bacterial strains×2 conditions (PBS/UHT-milk)). As such, the best performing candidate in each individual assay received a score of 0.125 (=(1/1)/8). […] Turbidity reduction assays were performed by combining 100 μL of overnight grown bacterial cells with an equal volume of purified enzyme at the desired concentration. Bacterial cells were washed with PBS and resuspended in a 1:1 ratio with enzyme to an OD600 of approximately 1.0. Next, the OD600 was measured using a Tecan infinite 200 PRO plate reader (Tecan, Switzerland) every 15 seconds at 37° C., shaking the 96-well plate between each measurement.
# Stationary phase S. uberis 0140J or S. aureus N305 and one randomly chosen clinical isolate of S. uberis, S. aureus, S. agalactiae and S. dysgalactiae were challenged with a final concentration of 0.25 μM endolysin in a 2 h time killing assay (TKA) in both phosphate buffered saline (PBS) and ultra-high temperature pasteurized whole cow's milk (UHT-milk).
row,Molecule,ranking by cumulative relative in vitro score
1,NC8: chimeric endolysin SEQ ID NO: 20; CPP + PlySs2 CHAP + Ply1081 CW_7 + PlySs9 amidase_3 (protein) MRQIKWFQNRRMKWKKGATTVNEALNNVRAQVGSGVSVGNGECYALASWYERMISPDATVGLGAGVGWVSGAIGDTISAKNIGSSYNWQANGWTVSTSGPFKAGQIVTLGATPGNPYGHVVIVEAVDGDRLTILEQNYGGKRYPVRNYYSAASYRQQVVHYITPPGTVAQSAPNLAGAGIDQLVQETLAGKYGNGEQRKAALGSQYQAVMAVINGKATAPKKTVDQLAQEVIQGKHGNGEDRKKSLGPDYDAVQKRVTEILKGSPSGNIPKTPSDAPKSEVVNSSTEPKTEETGANGKATDTKITKGSGKHLVICGHGQGRTGYDPGAVNAKLGITEAGKVRELSKLMSKYSGQQIDFITEQNVYDYRSITSIGKGYDSITELHFNAFNGSAKGTEVLIQSSLEADKEDMAILSLLSRYFQNRGIKKVDWLYNANQAASRGYTYRLVEIAFIDNEQDMAIFENKKEDIAKGLVSAITGVEVKTIVPSPPSSTVGSSGTPSKSIYLVGDSLRVLPHATHYQTGQKIANWVKGRTYKILQVKNVHQSNSKRAYLLDGIKSWVLEQDVEGTTKGHSKYHHHHHH,overall best performing candidates
2,NC3: chimeric endolysin SEQ ID NO: 15; CPP + PlySs2 CHAP + Ply1081 CW_7 + PlySs9 amidase_3 (protein) MGFGCNGPWNEDDLRCRNHCKSIKGYKGGYCAKGGFVCKCYGATTVNEALNNVRAQVGSGVSVGNGECYALASWYERMISPDATVGLGAGVGWVSGAIGDTISAKNIGSSYNWQANGWTVSTSGPFKAGQIVTLGATPGNPYGHVVIVEAVDGDRLTILEQNYGGKRYPVRNYYSAASYRQQVVHYITPPGTVAQSAPNLAGAGIDQLVQETLAGKYGNGEQRKAALGSQYQAVMAVINGKATAPKKTVDQLAQEVIQGKHGNGEDRKKSLGPDYDAVQKRVTEILKGSPSGNIPKTPSDAPKSEVVNSSTEPKTEETGANGKATDTKITKGSGKHLVICGHGQGRTGYDPGAVNAKLGITEAGKVRELSKLMSKYSGQQIDFITEQNVYDYRSITSIGKGYDSITELHFNAFNGSAKGTEVLIQSSLEADKEDMAILSLLSRYFQNRGIKKVDWLYNANQAASRGYTYRLVEIAFIDNEQDMAIFENKKEDIAKGLVSAITGVEVKTIVPSPPSSTVGSSGTPSKSIYLVGDSLRVLPHATHYQTGQKIANWVKGRTYKILQVKNVHQSNSKRAYLLDGIKSWVLEQDVEGTTKGHSKYHHHHHH,overall best performing candidates
